From IntAct's records for PubMed 23890821

B1: Protein Vpu (Human immunodeficiency virus type 1 group M subtype B (isolate HXB2) (HIV-1)), P05919 (parent)
chain: MQPIPIVAIVALVVAIIIAIVVWSIVIIEYRKILRQRKIDRLIDRLIERAEDSGNESEGEISALVEMGVEMGHHAPWDVDDL

Variants of: B1
Conditions: with cd4_human CD4, P01730

Variant | effect of a mutation on the interaction
I18F;V22F;V26L | decreasing interaction strength
